Where a chain is given by its changes, count along the chain named. Numbers in names are those of the source. Where “and” joins values, the source holds several entries; their conditions need not be identical. Equal entries are not always repeated. One block for each binder: values may come before it.
How the values were obtained:
[1] = molecular target: Kv1.3 (human) (UniProt P22001); test: cell-based or functional assay
[2] = molecular target: CXCR1 (UniProt P25024); test: cell-based or functional assay
Sequence of CXCR1 (P25024 whole entry): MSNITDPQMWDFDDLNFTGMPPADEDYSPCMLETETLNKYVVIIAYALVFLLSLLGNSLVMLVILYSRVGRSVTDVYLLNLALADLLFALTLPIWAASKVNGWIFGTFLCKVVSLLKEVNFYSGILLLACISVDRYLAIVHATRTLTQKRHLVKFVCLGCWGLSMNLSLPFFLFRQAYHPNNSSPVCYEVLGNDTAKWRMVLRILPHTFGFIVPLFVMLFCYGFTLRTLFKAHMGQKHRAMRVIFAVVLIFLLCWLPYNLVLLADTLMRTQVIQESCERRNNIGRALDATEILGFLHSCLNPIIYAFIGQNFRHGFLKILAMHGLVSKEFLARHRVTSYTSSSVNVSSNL

Sequence of Kv1.3 (human) (P22001 whole entry): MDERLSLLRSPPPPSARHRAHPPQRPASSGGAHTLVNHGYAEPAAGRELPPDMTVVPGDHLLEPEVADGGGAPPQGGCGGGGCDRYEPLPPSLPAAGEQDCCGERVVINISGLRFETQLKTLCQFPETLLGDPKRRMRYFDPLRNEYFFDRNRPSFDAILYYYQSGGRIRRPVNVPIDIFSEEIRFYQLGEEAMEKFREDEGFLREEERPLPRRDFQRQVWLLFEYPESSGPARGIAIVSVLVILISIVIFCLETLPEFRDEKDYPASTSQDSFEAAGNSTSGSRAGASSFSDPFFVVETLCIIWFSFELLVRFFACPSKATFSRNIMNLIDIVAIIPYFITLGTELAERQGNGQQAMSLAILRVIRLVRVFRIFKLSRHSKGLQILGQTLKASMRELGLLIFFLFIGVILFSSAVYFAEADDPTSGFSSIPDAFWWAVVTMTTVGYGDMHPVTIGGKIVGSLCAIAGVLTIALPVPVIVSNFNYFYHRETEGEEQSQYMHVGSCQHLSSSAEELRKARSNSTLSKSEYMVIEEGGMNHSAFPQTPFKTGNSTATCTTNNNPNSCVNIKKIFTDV

B1: VH4-34 MutE 3xGGS NoKnob IgG (antibody, V domains shown)
VH: QVQLREWGAGLLKPSETLSLTCAVYGGSFSDKYWSWIRQPPGKGLEWIGSINHSGSTNYNPSLKSRVTISVDTSKNQFSLKLSSVTAADTAVYYCTSVHQETKKYQSGGSGGSGGSSYTYNYEWHVDVWGQGLLVTVSS
VL: QAVLNQPSSVSGSLGQKVTISCSGSSSNIGNNYVSWYQQLPGTAPRTLIYGDTKRPSGIPDRFSGSKSGTSATLGITGLQTGDEADYYCASAEDSSSNAVFGSGTTLTVLG
IL-2 ELISA (A450), Donor 1, [IgG] 0.01 nM [1]: 2.18 A450 and 2.23 A450
IL-2 ELISA (A450), Donor 1, [IgG] 0.75 nM [1]: 2.19 A450 and 2.17 A450
IL-2 ELISA (A450), Donor 1, [IgG] 68 nM [1]: 1.42 A450 and 1.31 A450
IL-2 ELISA (A450), Donor 2, [IgG] 0.01 nM [1]: 1.75 A450
IL-2 ELISA (A450), Donor 2, [IgG] 0.75 nM [1]: 1.61 A450 and 1.42 A450
IL-2 ELISA (A450), Donor 2, [IgG] 68 nM [1]: 1.32 A450 and 0.934 A450
IL-17 ELISA (A450), Donor 1, 0.00 nM IgG [1]: 0 A450
IL-17 ELISA (A450), Donor 1, 0.02 nM IgG [1]: 1.35 A450
IL-17 ELISA (A450), Donor 1, 0.08 nM IgG [1]: 1.34 A450
IL-17 ELISA (A450), Donor 1, 0.34 nM IgG [1]: 1.27 A450
IL-17 ELISA (A450), Donor 1, 1.54 nM IgG [1]: 1.18 A450
IL-17 ELISA (A450), Donor 1, 6.9 nM IgG [1]: 0.828 A450
IL-17 ELISA (A450), Donor 1, 31 nM IgG [1]: 0.453 A450
IL-17 ELISA (A450), Donor 1, 140 nM IgG [1]: 0.247 A450
IL-17 ELISA (A450), Donor 2, 0.00 nM IgG [1]: 0 A450
IL-17 ELISA (A450), Donor 2, 0.02 nM IgG [1]: 0.959 A450
IL-17 ELISA (A450), Donor 2, 0.08 nM IgG [1]: 0.777 A450
IL-17 ELISA (A450), Donor 2, 0.34 nM IgG [1]: 0.82 A450
IL-17 ELISA (A450), Donor 2, 1.54 nM IgG [1]: 0.785 A450
IL-17 ELISA (A450), Donor 2, 6.9 nM IgG [1]: 0.641 A450
IL-17 ELISA (A450), Donor 2, 31 nM IgG [1]: 0.364 A450
IL-17 ELISA (A450), Donor 2, 140 nM IgG [1]: 0.096 A450
TNF-α ELISA (A450), Donor 1, 0.00 nM IgG [1]: 0 A450
TNF-α ELISA (A450), Donor 1, 0.02 nM IgG [1]: 1.52 A450
TNF-α ELISA (A450), Donor 1, 0.08 nM IgG [1]: 1.45 A450
TNF-α ELISA (A450), Donor 1, 0.34 nM IgG [1]: 1.42 A450
TNF-α ELISA (A450), Donor 1, 1.54 nM IgG [1]: 1.33 A450
TNF-α ELISA (A450), Donor 1, 6.9 nM IgG [1]: 1.1 A450
TNF-α ELISA (A450), Donor 1, 31 nM IgG [1]: 0.808 A450
TNF-α ELISA (A450), Donor 1, 140 nM IgG [1]: 0.402 A450
TNF-α ELISA (A450), Donor 1, [IgG] 0.01 nM [1]: 1.91 A450 and 1.88 A450
TNF-α ELISA (A450), Donor 1, [IgG] 0.75 nM [1]: 1.76 A450 and 1.67 A450
TNF-α ELISA (A450), Donor 1, [IgG] 68 nM [1]: 1.12 A450 and 1.08 A450
TNF-α ELISA (A450), Donor 2, 0.00 nM IgG [1]: 0 A450
TNF-α ELISA (A450), Donor 2, 0.02 nM IgG [1]: 1.56 A450
TNF-α ELISA (A450), Donor 2, 0.08 nM IgG [1]: 1.42 A450
TNF-α ELISA (A450), Donor 2, 0.34 nM IgG [1]: 1.55 A450
TNF-α ELISA (A450), Donor 2, 1.54 nM IgG [1]: 1.29 A450
TNF-α ELISA (A450), Donor 2, 6.9 nM IgG [1]: 0.916 A450
TNF-α ELISA (A450), Donor 2, 31 nM IgG [1]: 0.438 A450
TNF-α ELISA (A450), Donor 2, 140 nM IgG [1]: 0.167 A450
TNF-α ELISA (A450), Donor 2, [IgG] 0.01 nM [1]: 2.23 A450 and 2.1 A450
TNF-α ELISA (A450), Donor 2, [IgG] 0.75 nM [1]: 2.1 A450 and 1.88 A450
TNF-α ELISA (A450), Donor 2, [IgG] 68 nM [1]: 1.8 A450 and 1.32 A450

B4: VH4-34 MutE 3xGGS NoKnob (antibody, V domains shown)
VH: B1 VH
VL: B1 VL
IL-2 ELISA (A450); Donor 1; 0.04 nM IgG [1]: 0.333 A450
IL-2 ELISA (A450); Donor 1; 0.6 nM IgG [1]: 0.356 A450
IL-2 ELISA (A450); Donor 1; 9.4 nM IgG [1]: 0.371 A450
IL-2 ELISA (A450); Donor 1; 150 nM IgG [1]: 0.232 A450
IL-2 ELISA (A450); Donor 2; 0.04 nM IgG [1]: 0.976 A450
IL-2 ELISA (A450); Donor 2; 0.6 nM IgG [1]: 0.795 A450
IL-2 ELISA (A450); Donor 2; 9.4 nM IgG [1]: 0.808 A450
IL-2 ELISA (A450); Donor 2; 150 nM IgG [1]: 0.475 A450
TNF-α ELISA (A450); Donor 1; 0.04 nM IgG [1]: 0.76 A450
TNF-α ELISA (A450); Donor 1; 0.6 nM IgG [1]: 0.813 A450
TNF-α ELISA (A450); Donor 1; 9.4 nM IgG [1]: 0.821 A450
TNF-α ELISA (A450); Donor 1; 150 nM IgG [1]: 0.599 A450
TNF-α ELISA (A450); Donor 2; 0.04 nM IgG [1]: 0.736 A450
TNF-α ELISA (A450); Donor 2; 0.6 nM IgG [1]: 0.631 A450
TNF-α ELISA (A450); Donor 2; 9.4 nM IgG [1]: 0.622 A450
TNF-α ELISA (A450); Donor 2; 150 nM IgG [1]: 0.366 A450

Second part, the binder after the results:

luminescence at 0.1 nM IL-8 domains [2]: 4180
luminescence at 0.4 nM IL-8 domains [2]: 5190
luminescence at 0.5 nM IL-8 domains [2]: 6620
luminescence at 1.6 nM IL-8 domains [2]: 6410
luminescence at 2.2 nM IL-8 domains [2]: 13500
luminescence at 6.25 nM IL-8 domains [2]: 10500
luminescence at 9.9 nM IL-8 domains [2]: 21900
luminescence at 25 nM IL-8 domains [2]: 14600
luminescence at 44 nM IL-8 domains [2]: 24000
luminescence at 100 nM IL-8 domains [2]: 18000
luminescence at 200 nM IL-8 domains [2]: 25000
B2: VH4-34+CDR3-IL8_CDR1-Cow_Q5RQ6E with VL1-51 S2A, T5N, P8S, A12G, A13S, P14L, K46R, L47T, D51G, N52D, N53T (antibody)
VH: QVQLREWGAGLLKPSETLSLTCTASGFSLSDKAVGWIRQPPGKGLEWIGEINHSGSTNYNPSLKSRVTISVDTSKNQFSLKLSSVTAADTAVYYCTSVHQETKKYQSPRSAKELRCQCIKTYSKPFHPKFIKELRVIESGPHCANTEIIVKLSDGRELCLDPKENWVQRVVEKFLKRAENSGSGSYTYNYEWHVDVWGQGLLVTVSS
light: QAVLNQPSSVSGSLGQKVTISCSGSSSNIGNNYVSWYQQLPGTAPRTLIYGDTKRPSGIPDRFSGSKSGTSATLGITGLQTGDEADYYCASAEDSSSNAVFGSGTTLTVLGQPKAAPSVTLFPPSSEELQANKATLVCLISDFYPGAVTVAWKADSSPVKAGVETTTPSKQSNNKYAASSYLSLTPEQWKSHRSYSCQVTHEGSTVEKTVAPTECS

luminescence at 0.1 nM IL-8 domains [2]: 4060
luminescence at 0.4 nM IL-8 domains [2]: 6190
luminescence at 0.5 nM IL-8 domains [2]: 5300
luminescence at 1.6 nM IL-8 domains [2]: 8160
luminescence at 2.2 nM IL-8 domains [2]: 10300
luminescence at 6.25 nM IL-8 domains [2]: 13500
luminescence at 9.9 nM IL-8 domains [2]: 17100
luminescence at 25 nM IL-8 domains [2]: 21000
luminescence at 44 nM IL-8 domains [2]: 23300
luminescence at 100 nM IL-8 domains [2]: 25900
luminescence at 200 nM IL-8 domains [2]: 22300
B3: VH4-34+CDR3-IL8_CDR1-G31DY32K_CDR2-E50S_Q5RQ6E with VL1-51 S2A, T5N, P8S, A12G, A13S, P14L, K46R, L47T, D51G, N52D, N53T (antibody)
VH: B2 VH with T23A, A24V, S25Y, F27G, L29F, A33Y, V34W, G35S, E50S
light: B2 light

luminescence at 0.4 nM IL-8 domains [2]: 5420
luminescence at 1.6 nM IL-8 domains [2]: 5710
luminescence at 6.25 nM IL-8 domains [2]: 7160
luminescence at 25 nM IL-8 domains [2]: 11200
luminescence at 100 nM IL-8 domains [2]: 15500
B5: VH4-34+CDR3-IL8_CDR1-G31DY32K_CDR2-E50S with VL1-51 S2A, T5N, P8S, A12G, A13S, P14L, K46R, L47T, D51G, N52D, N53T (antibody)
VH: QVQLQQWGAGLLKPSETLSLTCAVYGGSFSDKYWSWIRQPPGKGLEWIGSINHSGSTNYNPSLKSRVTISVDTSKNQFSLKLSSVTAADTAVYYCTSVHQETKKYQSPRSAKELRCQCIKTYSKPFHPKFIKELRVIESGPHCANTEIIVKLSDGRELCLDPKENWVQRVVEKFLKRAENSGSGSYTYNYEWHVDVWGQGLLVTVSSAS
light: B2 light

luminescence at 0.4 nM IL-8 domains [2]: 6310
luminescence at 1.6 nM IL-8 domains [2]: 7400
luminescence at 6.25 nM IL-8 domains [2]: 10200
luminescence at 25 nM IL-8 domains [2]: 15400
luminescence at 100 nM IL-8 domains [2]: 21600
B6: VH4-34+CDR3-IL8_CDR1-Cow_CDR2-Cow with VL1-51 S2A, T5N, P8S, A12G, A13S, P14L, K46R, L47T, D51G, N52D, N53T (antibody)
VH: QVQLQQWGAGLLKPSETLSLTCTASGFSLSDKAVGWIRQPPGKGLEWLGSIDTGGNTGYNPSLKSRVTISVDTSKNQFSLKLSSVTAADTAVYYCTSVHQETKKYQSPRSAKELRCQCIKTYSKPFHPKFIKELRVIESGPHCANTEIIVKLSDGRELCLDPKENWVQRVVEKFLKRAENSGSGSYTYNYEWHVDVWGQGLLVTVSSAS
light: B2 light

From patent US20160159928A1
